PMC5680780

Target: recombinant Clonorchis sinensis pyruvate kinase (Clonorchis sinensis)
Assay: native gel or EMSA + SEC; purified rCsPK on 8% native PAGE against marker proteins; gel filtration on a Sepharose 12 10/300 GL column (AKTA FPLC), 0.8 ml/min, 50 mM Tris-HCl, 100 mM KCl, pH 7.5; apparent Mr about 290 kDa against a subunit of about 58 kDa

stoichiometry N: 5
Substance: recombinant Clonorchis sinensis pyruvate kinase (enzyme)
